{
  "source": "patent US20190367617A1",
  "about": "(AMPSOURCE BIOPHARMA SHANGHAI, published 2019)",
  "binders": {"B1": {"name": "murine monoclonal antibody AB12M1 (antibody, mouse IgG2b, V domains shown)", "VH": "EVKLVESGGGLVKPGGSLKLSCAASGFTFSSYGMSWVRQTPEKRLEWVATISGGGRDTYYPDSVKGRFTISRDNAKNNLYLQMSSLRSEDTALYYCARQKDTSWFVHWGQGTLVTVSA", "VL": "not shown", "notes": "subclass identified as mouse IgG2b (Kappa), purified from hybridoma supernatant; also called antibody of hybridoma clone #32"}},
  "key": {"[1]": {"target": "T1, human CTLA4/His (Sino Biological Inc.) (human, UniProt P16410 36-162, limits assumed)", "T1 construct": "Bought protein; not shown: His tag", "T1 sequence (P16410 36-162 limits assumed)": "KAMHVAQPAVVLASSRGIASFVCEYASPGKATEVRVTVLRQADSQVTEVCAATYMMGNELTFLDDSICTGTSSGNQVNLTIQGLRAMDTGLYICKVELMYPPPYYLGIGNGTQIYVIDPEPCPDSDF", "assay": "indirect ELISA, human CTLA4/His coated at 0.1 µg/mL, HRP goat anti-mouse IgG", "procedure": "(§1) Human PD-1/His, human ICOS/Fc, human CTLA4/His, human CD28/Fc, cynomolgus monkey PD-1/Fc, and mouse PD-1/His (all from Sino Biological Inc., Beijing, China) were diluted with PBS buffer to 0.1 μg/mL, and added to the 96-well plate at a volume of 100 μL/well and placed at 16° C. for 16 to 20 h. The PBS buffer was aspirated from the 96-well plate, and the plate was washed once with PBST (PBS containing 0.05% Tween 20, pH 7.4). 200 μL of PBST/1% no-fat milk was added to each well and incubated at room temperature for 1 h for blocking. The blocking solution was removed and the plate was washed 3 times with PBST. 100 μL of the anti-PD-1 antibody to be tested was added to each well, and incubated at room temperature for 1.5 h. The reaction solution was removed and the plate was washed 3 times with PBST. 50 μL of the HRP-labeled goat anti-mouse IgG secondary antibody (The Jackson Laboratory) diluted (dilution ratio 1:4000) was added to each well. Incubated at room temperature for 1 h. The plate was washed 3 times with PBST. 100 μL of the TMB was added to each well and incubated at room temperature for 5-10 min 50 μL of 0.2 M sulfuric acid was added to each well to terminate the reaction. Absorbance values were read at dual wavelengths of 450/620 nm in a microplate reader."}, "[2]": {"target": "T2, cynomolgus monkey PD-1/Fc (Sino Biological Inc.) (cynomolgus monkey, UniProt B0LAJ3 25-170)", "T2 construct": "Bought protein", "T2 sequence (B0LAJ3 entry or part of it limits assumed)": "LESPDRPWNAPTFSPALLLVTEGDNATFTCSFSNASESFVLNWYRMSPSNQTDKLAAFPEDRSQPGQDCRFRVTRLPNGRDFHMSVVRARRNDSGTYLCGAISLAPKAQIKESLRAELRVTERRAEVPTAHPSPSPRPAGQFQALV", "assay": "indirect ELISA, cynomolgus monkey PD-1/Fc coated at 0.1 µg/mL, HRP goat anti-mouse IgG", "procedure": "as §1"}, "[3]": {"target": "T3, human PD-1/His (Sino Biological Inc.) (human, UniProt Q15116 25-170)", "T3 construct": "extracellular domain; Bought protein; also called extracellular domain fragment of PD-1 protein containing His tag; not shown: His tag", "T3 sequence (Q15116 25-170)": "as the sequence (B0LAJ3 entry or part of it limits assumed) above, with E2D, A10P, L19V, A35T, R75Q, A144T counted along it", "assay": "BLI (Octet), human PD-1/His on Ni-NTA sensor, antibody 3.125-100 nM", "text": "We used the bio-layer interferometry (BLI) technique to characterize the binding kinetics and affinity of purified murine monoclonal antibodies. According to the standard procedure, the Octet molecular interaction instrument (ForteBio Octet RED & QK system, PALL corp.) was operated. […] The antigen-antibody association and dissociation kinetics were then tracked."}, "[4]": {"target": "T4, human ICOS/Fc (Sino Biological Inc.) (human, UniProt Q9Y6W8 21-141, limits assumed)", "T4 construct": "Bought protein; not shown: Fc", "T4 sequence (looked up)": "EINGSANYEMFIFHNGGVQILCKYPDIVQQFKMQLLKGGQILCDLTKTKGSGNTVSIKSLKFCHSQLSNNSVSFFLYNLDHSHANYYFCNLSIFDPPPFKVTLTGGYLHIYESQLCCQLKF", "assay": "indirect ELISA, human ICOS/Fc coated at 0.1 µg/mL, HRP goat anti-mouse IgG", "procedure": "as §1"}, "[5]": {"target": "T5, Human PD-1 (Sino Biological Inc., Beijing, China) (human, UniProt Q15116 25-167)", "T5 construct": "also called hPD-1", "T5 sequence (Q15116 25-167 limits assumed)": "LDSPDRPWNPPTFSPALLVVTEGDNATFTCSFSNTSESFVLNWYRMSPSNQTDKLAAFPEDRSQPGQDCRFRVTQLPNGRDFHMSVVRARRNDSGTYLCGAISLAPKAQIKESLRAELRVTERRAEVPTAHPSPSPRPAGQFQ", "assay": "indirect ELISA, human PD-1 coated at 0.1 µg/mL", "procedure": "The PBS buffer was aspirated from the 96-well plate, and the plate was washed once with PBST (PBS containing 0.05% Tween 20, pH 7.4). 200 μL of PBST/1% no-fat milk was added to each well and incubated at room temperature for 1 h for blocking. The blocking solution was removed and the plate was washed 3 times with PBST. […] The reaction solution was removed and the plate was washed 3 times with PBST. […] The plate was washed 3 times with PBST."}, "[6]": {"target": "T6, human CD28/Fc (Sino Biological Inc.) (human, UniProt P10747 19-152)", "T6 construct": "Bought protein; not shown: Fc", "assay": "indirect ELISA, human CD28/Fc coated at 0.1 µg/mL, HRP goat anti-mouse IgG", "procedure": "as §1"}, "[7]": {"target": "T7, mouse PD-1/His (Sino Biological Inc.) (mouse, UniProt Q02242 25-167)", "T7 construct": "Bought protein; not shown: His tag", "T7 sequence (looked up)": "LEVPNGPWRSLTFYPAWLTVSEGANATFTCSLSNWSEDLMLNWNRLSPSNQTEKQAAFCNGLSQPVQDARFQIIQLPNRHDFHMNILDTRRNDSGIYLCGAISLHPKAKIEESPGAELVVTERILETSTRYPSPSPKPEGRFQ", "assay": "indirect ELISA, mouse PD-1/His coated at 0.1 µg/mL, HRP goat anti-mouse IgG", "procedure": "as §1"}, "[8]": {"target": "T3, human PD-1/His (Sino Biological Inc.)", "assay": "indirect ELISA, human PD-1/His coated at 0.1 µg/mL, HRP goat anti-mouse IgG", "procedure": "as §1"}},
  "data": [
    {"binder": "B1", "values": [
      {"measurement": "binding result", "setting": "[1]", "value": "no binding (tested: 10 µg/mL)"},
      {"measurement": "EC50 (read off the curve)", "setting": "[2]", "value": "~3", "unit": "ng/mL"},
      {"measurement": "Kd", "setting": "[3]", "value": "< 1", "unit": "pM"},
      {"measurement": "koff", "setting": "[3]", "value": "< 1e-07", "unit": "s⁻¹"},
      {"measurement": "kon", "setting": "[3]", "value": 109000, "unit": "M⁻¹ s⁻¹"},
      {"measurement": "binding result", "setting": "[4]", "value": "no binding (tested: 10 µg/mL)"},
      {"measurement": "EC50", "setting": "[5]", "value": "~2", "unit": "ng/mL"},
      {"measurement": "binding result", "setting": "[6]", "value": "no binding (tested: 10 µg/mL)"},
      {"measurement": "binding result", "setting": "[7]", "value": "no binding (tested: 10 µg/mL)"},
      {"measurement": "EC50 (read off the curve)", "setting": "[8]", "value": "~4", "unit": "ng/mL"}
    ]}
  ]
}
